Tests used:
E. coli ATCC 11775 [1] = type: cell-based, Escherichia coli; conditions: 200 µg/well, 8 mm wells in Mueller-Hinton agar, 48 h at 37 °C
Protocol: (§1) These tests were carried out following the methodology reported in [36]. Briefly, an inoculum aliquot (200 µL; 2 × 10^6 CFU/mL) was placed on Mueller-Hinton (MH) Agar plates, mixed, and allowed to solidify. Wells were drilled using a punch of 8 mm, and then each hollow was filled with 100 µL of peptide (2000 µg/mL). Incubation for 48 h at 37 °C was then performed. As a non-growth control, ciprofloxacin 1.25 µg/mL was used for all tested strains. Sterile water was used as a growth control.

[2] = test system: S. enteritidis ATCC 13076; type: cell-based, Salmonella enteritidis; conditions: S. enteritidis ATCC 13076, value in brackets (µM), 24 h at 37 °C, performed twice
Protocol: (§2) The MIC and MBC were determined using a microdilution assay. In brief, bacterial strains were incubated for 18 to 24 h at 37 °C in an MH broth until an optical density of 0.15 to 0.30 (620 nm) was obtained. 90 µL of Mueller-Hinton broth (MHB) were mixed with 90 µL of peptide (440 µg/mL), and using a 96-well microtiter plate peptide, serial dilution (200, 100, 50, 25, 12.5, and 6.2 µg/mL) was performed. 10 µL of inoculum (2 × 10^6 CFU/mL) was added to each well. Final volume in each well was 100 µL. Then they were incubated for 24 h at 37 °C; and the absorbance at 620 nm was measured using an Asys Expert Plus ELISA reader. To determine the MBC, an aliquot was taken from each well and was spread onto a MHA plate. After 24 h at 37 °C, the CFU/mL was determined. Each of these tests was performed twice.

[3] = test system: S. maltophilia ATCC 13636; type: cell-based, Stenotrophomonas maltophilia; conditions: 200 µg/well, 8 mm wells in Mueller-Hinton agar, 48 h at 37 °C
Protocol: as §1

E. coli ATCC 11775 [4] = type: cell-based, Escherichia coli; conditions: E. coli ATCC 11775, value in brackets (µM), 24 h at 37 °C, performed twice
Protocol: as §2

[5] = test system: various strains of E. coli (0111, L361, ATCC 25922, wild strain, and IID-861); conditions: various strains of E. coli (0111, L361, ATCC 25922, wild strain, IID-861); cited from earlier work
Protocol: For BLF, a Minimum Inhibitory Concentration (MIC) and Minimum Bactericidal Concentration (MBC) larger than 200 µg/mL against the evaluated strains were found (Table 1), implying that high concentrations of the protein are required to achieve antibacterial activity. […] Furthermore, its purification is a long and expensive process.

[6] = test system: S. enteritidis ATCC 13076; type: cell-based, Salmonella enteritidis; conditions: 200 µg/well, 8 mm wells in Mueller-Hinton agar, 48 h at 37 °C
Protocol: as §1

[7] = test system: S. maltophilia ATCC 13636; type: cell-based, Stenotrophomonas maltophilia; conditions: S. maltophilia ATCC 13636, value in brackets (µM), 24 h at 37 °C, performed twice
Protocol: as §2

[8] = microdilution, Mueller-Hinton broth

B1: BLF: Bovine lactoferrin, 703 amino acids, 80 kDa glycoprotein; obtained from Sigma-Aldrich (protein, UniProt P24627 20-708, looked up)
Lactotransferrin: APRKNVRWCTISQPEWFKCRRWQWRMKKLGAPSITCVRRAFALECIRAIAEKKADAVTLDGGMVFEAGRDPYKLRPVAAEIYGTKESPQTHYYAVAVVKKGSNFQLDQLQGRKSCHTGLGRSAGWIIPMGILRPYLSWTESLEPLQGAVAKFFSASCVPCIDRQAYPNLCQLCKGEGENQCACSSREPYFGYSGAFKCLQDGAGDVAFVKETTVFENLPEKADRDQYELLCLNNSRAPVDAFKECHLAQVPSHAVVARSVDGKEDLIWKLLSKAQEKFGKNKSRSFQLFGSPPGQRDLLFKDSALGFLRIPSKVDSALYLGSRYLTTLKNLRETAEEVKARYTRVVWCAVGPEEQKKCQQWSQQSGQNVTCATASTTDDCIVLVLKGEADALNLDGGYIYTAGKCGLVPVLAENRKSSKHSSLDCVLRPTEGYLAVAVVKKANEGLTWNSLKDKKSCHTAVDRTAGWNIPMGLIVNQTGSCAFDEFFSQSCAPGADPKSRLCALCAGDDQGLDKCVPNSKEKYYGYTGAFRCLAEDVGDVAFVKNDTVWENTNGESTADWAKNLNREDFRLLCLDGTRKPVTEAQSCHLAVAPNHAVVSRSDRAAHVKQVLLHQQALFGKNGKNCPDKFCLFKSETKNLLFNDNTECLAKLGGRPTYEEYLGTEYVTAIANLKKCSTSPLLEACAFLTR
> 2.5 µM: MBC ([2]; aliquot spread on MHA plate) | MIC [2, 8] | MBC (E. coli ATCC 11775 [4]; aliquot spread on MHA plate) | MIC (E. coli ATCC 11775 [4]; [8]) | MBC ([7]; aliquot spread on MHA plate) | MIC [7, 8]
~ 9 mm: inhibition halo (E. coli ATCC 11775 [1]) | inhibition halo [3] | inhibition halo [6]
greater than 200 µg/mL: BLF concentration required for exhibiting an antibacterial effect [5]
